T1: soluble His-tagged TIGIT (Acro Biosystems, Cat #No. TIT-H52H3) (human, UniProt Q495A1 22-141)
T1 construct: Bought protein; also called His-tagged human TIGIT
T1 sequence (looked up): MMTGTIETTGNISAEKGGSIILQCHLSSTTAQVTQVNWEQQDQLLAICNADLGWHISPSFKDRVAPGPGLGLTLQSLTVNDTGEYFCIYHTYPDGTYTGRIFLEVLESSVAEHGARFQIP

T2: human TIGIT, full length, on cells (human, UniProt Q495A1 22-244)
T2 construct: also called hTIGIT; hTIGIT-CHO
T2 sequence: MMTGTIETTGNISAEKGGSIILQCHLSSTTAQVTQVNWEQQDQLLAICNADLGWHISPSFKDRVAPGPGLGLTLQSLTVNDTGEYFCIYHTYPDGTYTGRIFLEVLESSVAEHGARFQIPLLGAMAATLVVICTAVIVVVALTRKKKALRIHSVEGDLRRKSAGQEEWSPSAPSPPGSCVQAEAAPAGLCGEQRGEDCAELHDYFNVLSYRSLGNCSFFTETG

T3: cTIGIT-His (cynomolgus monkey)
T3 construct: also called His-tagged cyno TIGIT protein extracellular domain; soluble cTIGIT-His
T3 chain: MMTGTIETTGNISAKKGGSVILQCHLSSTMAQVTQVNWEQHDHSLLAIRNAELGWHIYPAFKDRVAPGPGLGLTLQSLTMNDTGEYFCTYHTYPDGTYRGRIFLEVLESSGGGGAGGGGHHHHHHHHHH

T4: hTIGIT-His (human)
T4 construct: also called His-tagged human TIGIT protein extracellular domain; soluble hTIGIT-His
T4 chain: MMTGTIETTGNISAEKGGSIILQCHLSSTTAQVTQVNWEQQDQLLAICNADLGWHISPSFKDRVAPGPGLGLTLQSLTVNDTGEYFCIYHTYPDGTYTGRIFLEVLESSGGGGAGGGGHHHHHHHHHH


Assays:
[1] = biological target: T1, soluble His-tagged TIGIT (Acro …); assay: SPR, ProteOn XPR36, antibody on Protein A chip, soluble His-tagged TIGIT as analyte, 25 C
Experimental: The kinetic binding of these recombinant anti-TIGIT antibodies to human TIGIT was determined by surface plasmon resonance (SPR) using a Bio-Rad ProteOn XPR36 instrument. Recombinant antibodies were immobilized using a Protein A coated GLC sensor chip, and soluble His-tagged TIGIT (Acro Biosystems, Cat #No. TIT-H52H3) was used as the analyte. The binding constants were determined at 25° C.

[2] = biological target: T2, human TIGIT, full length, on cells; assay: flow cytometry, endogenous TIGIT on isolated human CD8+ T cells
Experimental: (§1) The ability of chimera anti-TIGIT antibodies to bind to endogenously expressed TIGIT on isolated human CD4⁺ and CD8⁺ cells was tested using a flow cytometry assay. Human CD4⁺ or CD8⁺ T cells were isolated from human whole blood using RosetteSep™ Human CD4⁺ T cell Enrichment Cocktail (Stemcell, Cat #15022) or Human CD8⁺ T cell enrichment Cocktail (Stemcell, […]), respectively. […] However, differences in max binding activity (MFImax) was observed between clones.

[3] = biological target: T5, cynomolgus monkey TIGIT, full length, on cells (cynomolgus monkey); assay: flow cytometry on cTIGIT-CHO cells
T5 construct: Whole entry of 312 amino acids; also called cyno TIGIT; cTIGIT
Experimental: (§2) These clones were further expanded, and antibodies were purified using a Protein G column. These purified antibodies were tested for binding to human and cyno TIGIT expressed on cell surface by flow cytometry. Stable CHO-K1 cell lines expressing full length human TIGIT clone 2A7 (Swiss-Prot Q495A1; SEQ ID NO: 80) or full length cyno TIGIT clone C10 (Swiss-Prot A0A2K5UW92; SEQ ID NO: 84) were developed. For the flow assay, cells were collected and incubated in 100 μL of HBSS buffer in the presence (or absence) of various concentrations of antibodies for 1 hr at 4° C. After washing with HBSS, antibody binding on cells was detected with 2 μg/mL of Alexa488-labeled goat anti-mouse IgG antibody (ThermoFisher Scientific, Cat #A-11001) for 30 min at 4° C. Cells were then washed and resuspended in PBS and subjected to flow cytometry using an Attune NxT flow cytometer (ThermoFisher Scientific, Waltham, Mass.). The geometric mean of the fluorescence intensity was obtained for the whole single cell population. Antibodies capable of binding to both human and cyno TIGIT expressed on cell surface were further tested for their blocking activity against recombinant human CD155 binding to human TIGIT on the surface of CHO cells. CHO-hTIGIT cells (10⁵ cells) were incubated with 2.5 μg/mL hCD155-Fc protein in the presence of various concentrations of antibody at room temperature for 1 hr. […] Cells were then washed and subjected to flow cytometry analysis.
(§3) The binding capability of these chimera anti-TIGIT antibodies to cell surface overexpressed human and cyno TIGIT was confirmed utilizing the flow cytometry assay previously described. After incubation of chimera anti-TIGIT antibody with hTIGIT-CHO or cTIGIT-CHO, bound antibody was detected using Alexa488 conjugated goat anti-human IgG antibody (ThermoFisher Scientific, Cat #A-11013). Antibody functional activity in inhibiting recombinant hCD155-hFc binding to hTIGIT-CHO-K1 cells was also determined using flow assay as previously described.

[4] = biological target: T2, human TIGIT, full length, on cells; assay: flow cytometry, endogenous TIGIT on isolated human CD4+ T cells
Experimental: as §1

cTIGIT-His = biological target: T3, cTIGIT-His; assay: SPR, Biacore T200, antibody captured on anti-human IgG chip, cTIGIT-His as analyte
Experimental: (§4) The purified, full-length antibodies Hu24F8.1-IgG1.AA (containing VH1+VL2) and Hu24F8.2-IgG1.AA (containing VH2+VL2), together with the full-length chimera antibody of 24F8 mouse VH+VL and human IgG1/kappa constant domains (Ch24F8), were analyzed by SPR using a Biacore T200 instrument with antibody capture using an anti-human IgG coated chip and soluble hTIGIT-His or cTIGIT-His as the analyte.

[5] = biological target: T2, human TIGIT, full length, on cells; assay: flow cytometry, inhibition of hCD155-hFc binding to hTIGIT-CHO-K1 cells
Experimental: as §2, §3

[6] = biological target: T2, human TIGIT, full length, on cells; assay: flow cytometry on hTIGIT-CHO cells
Experimental: as §2, §3

hTIGIT-His = biological target: T4, hTIGIT-His; assay: SPR, Biacore T200, antibody captured on anti-human IgG chip, hTIGIT-His as analyte
Experimental: as §4

[7] = biological target: T2, human TIGIT, full length, on cells; assay: flow cytometry on CHO-K1 cells expressing human TIGIT
Experimental: as §2

[8] = biological target: T2, human TIGIT, full length, on cells; assay: flow cytometry, inhibition of hCD155-Fc binding to CHO-hTIGIT cells
Experimental: as §2

[9] = biological target: T5, cynomolgus monkey TIGIT, full length, …; assay: flow cytometry on CHO-K1 cells expressing cyno TIGIT
Experimental: as §2

| Kd [1] | koff [1] | kon [1] | CD8+ MFImax [2] | EC50 [2] | EC50 [3] | CD4+ MFImax [4] | EC50 [4] | Kd (cTIGIT-His) | koff (cTIGIT-His) | kon (cTIGIT-His) | IC50 [5] | EC50 [6] | Kd (hTIGIT-His) | koff (hTIGIT-His) | kon (hTIGIT-His) | EC50 [7] | IC50 [8] | EC50 [9] | Binder |
| --- | --- | --- | --- | --- | --- | --- | --- | --- | --- | --- | --- | --- | --- | --- | --- | --- | --- | --- | --- |
| 0.035 nM | 7.5e-05 s⁻¹ | 2.15e+06 M⁻¹ s⁻¹ | 5800 MFI | 0.177 nM | 0.199 nM | 210 MFI | 0.13 nM | 1.66 nM | 0.00109 s⁻¹ | 658000 M⁻¹ s⁻¹ | 0.62 nM | 0.15 nM | 0.183 nM | 0.000156 s⁻¹ | 853000 M⁻¹ s⁻¹ | – | – | – | Ch24F8 (antibody, human IgG1, V domains shown, also called full-length chimera antibody of 24F8 mouse VH+VL and human IgG1/kappa constant domains) VH: DVQLQESGPDLVKPSQSLSLTCTVTGYSITSGYSWHWIRQFPGNKLDWMGYVHYSGSTNYNPSLKSRISITRDTSKNQFFLQLNSVTTEDTATFYCARMDYGNYGGAMDYWGQGTSVTVSS VL: EIVMTQSHKFMSTSVGDRVSITCKASQDVRTAVAWYQQKPGQSPKLLIYSASYRYTGVPDRFTGSGSGTDFTFTISSVQAEDLAVYYCQQYYSTQWTFGGGTKLEIK |
| – | – | – | – | – | – | – | – | – | – | – | – | – | – | – | – | 0.825 nM | 2.19 nM | 1.17 nM | 30M18 (antibody, V domains shown, Mouse monoclonal antibody purified from hybridoma on Protein G; also called mAb 30M18; mouse anti-TIGIT clone 30M18) VH: EVQLQQSGPELVKPGASVKISCKTSGYTFTEYTMHWVKQSHGKSLEWIGGINPNNGGTSYNQKFKGKATLTVDKSSSTAYMELRSLTSEDSAVYYCARSGHMDYGYVYWGQGTTLTVSS VL: DIVMTQSHKFMSTSVGDRVSITCKASQYVSTAVAWYQQKPGQSPKLLIYSPSYRYTGVPDRFTGSGSGTDFTFTISSVQAEDLAVYYCQQHYSTPWTFGGGTKLEIK |
| 2.38 nM | 0.00173 s⁻¹ | 727000 M⁻¹ s⁻¹ | 3500 MFI | 0.293 nM | 6.14 nM | 125 MFI | 0.197 nM | – | – | – | 2.18 nM | 0.336 nM | – | – | – | – | – | – | Ch30M18 (antibody, human IgG1, V domains shown, also called recombinant anti-TIGIT mouse/human chimera antibody 30M18) VH: EVQLQQSGPELVKPGASVKISCKTSGYTFTEYTMHWVKQSHGKSLEWIGGINPNNGGTSYNQKFKGKATLTVDKSSSTAYMELRSLTSEDSAVYYCARSGHMDYGYVYWGQGTTLTVSS VL: DIVMTQSHKFMSTSVGDRVSITCKASQYVSTAVAWYQQKPGQSPKLLIYSPSYRYTGVPDRFTGSGSGTDFTFTISSVQAEDLAVYYCQQHYSTPWTFGGGTKLEIK |
| 7.1 nM | 0.074 s⁻¹ | 1.05e+07 M⁻¹ s⁻¹ | 4500 MFI | 0.062 nM | 0.18 nM | 150 MFI | 0.029 nM | – | – | – | 0.8 nM | 0.102 nM | – | – | – | – | – | – | Ch21B9 (antibody, human IgG1, V domains shown, also called recombinant anti-TIGIT mouse/human chimera antibody 21B9) VH: EVQLVESGGGLVKPGGSLKLSCTASGFTFSSYAMSWVRQSPEKRLEWVAEISSGGSYTYYTDTVTGRFTISRDNAKNTLYLEMSSLRSEDTAMYYCARKRRDYYGMDYWGQGTSVTVSS VL: DVQITQSPSYLAASPGETITINCRASKSISKYLAWYQEKPGKTNKLLIYSGSTLQTGIPSRFSGSGSGTDFTLTISSLEPEDFAMYYCQQHNEYPWTFGGGTKLEIK |
| 9.78 nM | 0.0141 s⁻¹ | 1.44e+06 M⁻¹ s⁻¹ | 5000 MFI | 0.175 nM | 0.24 nM | 140 MFI | 0.097 nM | – | – | – | 1.16 nM | 0.16 nM | – | – | – | – | – | – | Ch22B22 (antibody, human IgG1, V domains shown, Expressed in HEK293, purified on Protein A; also called recombinant anti-TIGIT mouse/human chimera antibody 22B22) VH: EVQLVESGGGLVKPGGSLKLSCAASGFTFSSYAMSWVRQSPEKRLEWVAEISSGGSYTYYPDTVTGRFTISRDNAKNTLYLEMSSLRSEDTAMYYCARKRRDYYAMDYWGQGTSVTVSS VL: DVQITQSPSYLAASPGETITINCRASKSISKYLAWYQEKPGKTNKLLIYSGSTLQSGIPSRFSGSGSGTDFTLTISSLEPEDFAMYYCQQHNEYPWTFGGGTKLEIK |
| 6.3 nM | 0.00929 s⁻¹ | 1.47e+06 M⁻¹ s⁻¹ | 5200 MFI | 0.16 nM | 0.42 nM | 180 MFI | 0.119 nM | – | – | – | 0.2 nM | 0.12 nM | – | – | – | – | – | – | Ch21B16 (antibody, human IgG1, V domains shown, also called recombinant anti-TIGIT mouse/human chimera antibody 21B16) VH: EVQLVESGGGLVKPGGSLKLSCAASGFTFSTYAMSWVRQSPEKRLEWVAEISSGGTYTYFPDTVTGRFTISRDNAKNTLYLEMSSLRSEDTAMYYCARKRRDYYAMDYWGQGTSVTVSS VL: DVQITQSPSYLAASPGETITINCRASKSISKYLAWYQEKPGKTNKLLIYSGSTLQSGIPSRFSGSGSGTDFTLTISSLEPEDFAVYYCQQHNEYPWTFGGGTKLEIK |
| 0.904 nM | 0.00113 s⁻¹ | 1.26e+06 M⁻¹ s⁻¹ | 7200 MFI | 0.249 nM | 0.358 nM | 190 MFI | 0.141 nM | – | – | – | 0.48 nM | 0.159 nM | – | – | – | – | – | – | Ch28O12 (antibody, human IgG1, V domains shown, also called recombinant anti-TIGIT mouse/human chimera antibody 28O12) VH: EVQLVESGGGLVKPGGSLKLSCAASGFTFSNYAMSWVRQSPEKRLEWVAEISGGGSYTYHPDTVTGRFTISRDNAKNTLYLEMSSLRSEDTAMYYCARKRRDYYAMDYWGQGTSVTVSS VL: DVQITQSPSYLAASPGETITINCRASKSISKYLAWYQEKPGKTNKLLIYSGSTLQSGIPSRFSGSGSGTDFTLTISSLEPEDFAMYYCQQHNEYPWTFGGGTKLEIK |
| 3.85 nM | 0.0214 s⁻¹ | 5.57e+06 M⁻¹ s⁻¹ | 4500 MFI | 0.117 nM | 0.212 nM | 125 MFI | 0.073 nM | – | – | – | 0.7 nM | 0.131 nM | – | – | – | – | – | – | Ch5J24 (antibody, human IgG1, V domains shown, also called recombinant anti-TIGIT mouse/human chimera antibody 5J24) VH: QVQLQQSGAELVRPGTSVKMSCKAAGYTFTNHWIGWVKQRPGHGLEWIGDIYPGGGYTNYNEKFKGKATLTADTSSSTAYMYLSSLTSEDSAIYYCARSYGYDLYAMDYWGQGTSVTVSS VL: DIQMTQSPSSLSASLGERVSLTCRASQEISGYLSWLQQKPDGTIKRLIYAASTLGSGVPKRFSGSRSGSDYSLTISSLESEDFADYYCLQYDSYPFTFGAGTKLELK |
